Source: the domain aggregation screens of Martell et al. (2025)

Assay: soluble fraction after stress (log2 fold change); higher = more stays soluble; pooled small domains, quantitative proteomics
Conditions: stress: 75 degC
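Note: 20 min heating vs room temperature control held 20 min.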

## HMKDGMRVYITYHDSEEEPEKPIGDGTTKGWHTNSTASVVWISQKVAESADLGIWGDPIRIKGEA
  soluble fraction (log2): 0.0608

## HMKDIIVDPQGQYNHPGVPTRIPSSDITMKGVGYPVLGIADNGQKQMMQPGQDYKFPGAKYVDEYPQM
  soluble fraction (log2): 0.185

## HMKDIIVLGAIQAGIKKFDKIQKMTQIEPEELNSILEQLENRGFIQVAEKSGLLGKKIEILVTEKGSNEVD
  soluble fraction (log2): 0.223

## HMKDITAVISKKKGRDYYYIIVSYHLSNGKRVQKWIKTEFSVNGNNKRKLEQKRIEILQEWQNKLV
  soluble fraction (log2): -1.04

## HMKDITMPNVYGLTLEMAEQTLKQSELSIFKAMKINSDTVEEGKVIYTDPKANSIVSGDQEITIYVSDGP
  soluble fraction (log2): 0.411

## HMKDKSEKTKKLIFEAAFKIIREEGFSELSANKIAQVASVSKGVIFHHFSQMDDLYLFMLDTL
  soluble fraction (log2): 0.23

## HMKDLTAIKGVGEFFAKKLSQAGYQSITNLTDVNAKRLQADTGIPLPIAARIIKEAQSLIAET
  soluble fraction (log2): 0.157

## HMKDMWNRIRRARLSAGLSQAALAKETGVRRSAVTQWEKEGGTSPSVANLARIAVVTQVHFEWLATGRGPG
  soluble fraction (log2): -2.76

## HMKDNIRSILEDIPNIGPGRRRALLKHFGSIEAIRRASLEDLIKVDGMNRNAALSIMEYFGM
  soluble fraction (log2): -0.286

## HMKDPSLEHIDALAGKPFQAFPGQDHRAHITAHLNFMSTNMVRNNPSIMAAIQKNILEHISLMAQEQIQL
  soluble fraction (log2): -1.42

## HMKEETYHYTVRYVTDGGDILASYEGKATKDSVFFPEVKTFDGYTAVRGEEPMFHLVSDHAVFQIVYQKNG
  soluble fraction (log2): -1.17

## HMKEFEINSQWKPSLEVYDILSVKGGISRNFIEDSIPEFVLYWRGRGDKSNTWDSKFVQHVKRQWNFYSGL
  soluble fraction (log2): -2.43

## HMKEGGREEMSEIVERYGDERALMANITSVQNLMNNMKWTLDQALDALGIKGKERTLITQQLQ
  soluble fraction (log2): -0.0628

## HMKEIATKSELTYFIQRLLDLLEETNFFNPEERKKAMINHIEAIFRRNNLTLQELNMLHGIITSITR
  soluble fraction (log2): -2.45

## HMKEIGGGPASKFIYYLIKTKHPIEQGDLIGITHLPRRTVQSAIEDLKNQGFIIERNSLDDSRRKVYYPVK
  soluble fraction (log2): -0.943

## HMKEIKRLVELSPGRYFIEGATNIRVFGINGSLLLDTKGETVDLSDLAKGVYLLKTDGVTYKVL
  soluble fraction (log2): -0.506

## HMKEIYIDRGKEALEKELRKRKIPFQEFLSKENTNLLFDTLKIPSHDLEELYLEIGNGKHAASTVVNTVY
  soluble fraction (log2): 0.391

## HMKEKQLMTLDDDLYAFLLKHPGIIQKDIYNHFPYDIKGVIADTLYAWDKTGKIKRTKSGNSYIIYT
  soluble fraction (log2): -0.228

## HMKELAADFSRRIINARTSKGWSQADLGQRMAETINVIKSAESGKPPTDAVVKKFETVLGVILM
  soluble fraction (log2): -1.06

## HMKELLDRIFLHETMRRVSQDATITFSKKVYEVPQKFIGRQVTVQYDPEDLSRVYVKDLNFPEPVMVYPVQ
  soluble fraction (log2): -1.59

## HMKELTPEQLQHNWNNLRQFIDVNFSGDRLGGLNKMYDYFEERMMFAPASGKQHYHNAFAGGYVEHVMHV
  soluble fraction (log2): 0.209

## HMKEPGFAPPVRALAAAPITVLAQVAGTNPGEIRARLRAAGYPVASDQQSVQSLVGGDLKAQIGVLNRILA
  soluble fraction (log2): -0.286

## HMKEQIKVPDLSNKTPEEAKKELNTLGLGARKGGEESSDTVEEGLITRQEPAAGEQVDKNTQILFYVSTGK
  soluble fraction (log2): 0.901

## HMKEQLLLGFKVRSLRGIDLGFVKFIEGSAFQSFLKTDLTIIPNVPNYVKKIDNVKKIILVDWESD
  soluble fraction (log2): -2.8

## HMKEQYTELDWDKVQVNDKVMIKDLNQQVTILSLPDKNNALYIQMGMIKTKVKKEKLAVYNPQLA
  soluble fraction (log2): -2

## HMKERVSWDERLERFAKHITENESLPYPSSKEYAWFEENKALYDAGELEPVRAQSFAFLLKIMRRMNL
  soluble fraction (log2): -1.7

## HMKETIIPELLQNELDKNSELNDKFNTFSPYKQREFIEYIITAKQEKTQISRLQKVILMILEGRGLNN
  soluble fraction (log2): -1.89

## HMKEVELENMIKAKGFKDAAVLVDERSVTVIVESERLAAGDSASIKELVSRGTGVDPQNVVII
  soluble fraction (log2): -0.31

## HMKEYPEVITTSRLNVRTGPGTGYQRLGTLDQNLRVLVLTRQQGWAQIRGMLNGETVIGWVNDYYLQAID
  soluble fraction (log2): -2.54

## HMKFINISIDKSGNLFINKKSIKFQDLKYNVVNLVDESKNLVVLNADENISHGYVISVLDVLRSIDGLKLA
  soluble fraction (log2): -2.13

## HMKFNEKQNEVRIAIMNFIIDNKRPFHMKQDGYDALEGITLSGRHEFQDILDVLHSRDGFSADEEGNINF
  soluble fraction (log2): -1.09

## HMKFPIITAKQDSDGKFYWAQTTDKGKTYTFILDGDGKKFPIGGTMPDVKINENGYWSVNGSSTGVLANDL
  soluble fraction (log2): 0.368

## HMKFSVEEQFKKSFPKNTYETFSETSLKGVYEVYNGKQVYYYLPVNDVLLLGSIVTKDGKNLTQESNSKK
  soluble fraction (log2): -0.279

## HMKGIVFTEFLDLVEERFGLEMVDAIISQSKLESKGVYTSIGTYSFSELLQLLQNLKIQTGISIDNLLLI
  soluble fraction (log2): -0.961

## HMKGKIYFFEEGVDRVGGVERVISTLANEFSKKYKVNVISFYKTRKETFFKYNSDIDITYLSK
  soluble fraction (log2): 0.152

## HMKGLDRATNKALLLKHIIDNGSTGTRFSELRQVLPSLTRGSISSLLIELRSEGKIHSIGVTRNARWYPTE
  soluble fraction (log2): -1.79

## HMKGLKERLLYFIEYKGLPVQMFEKIVGLSNAAVSKMGDNTRRSTIDKISKSFPELDVNWLLTGQGEMLSY
  soluble fraction (log2): -0.942

## HMKGPAFAKIDLTQLPAGLTSFLNTNAAGFKLDYAVAITKDSVIIEYHVGVTIGTAKKEFHLDPNFQLLP
  soluble fraction (log2): -0.499

## HMKGPLKDLGPDPVTGKSILVKDGKFGTYVTDGETNATLRRGDIVELLTLERGMELLAEKRARATQ
  soluble fraction (log2): 0.0771

## HMKGTVKFFNESKGFGFITEEGTNKEHFVHVSGLVDEIRENDEVEFDLQDGRKGLNAVNVRV
  soluble fraction (log2): 0.363

## HMKGVENLSDIDIQKALNNARANLSKNKAKLEQAGDDEKKKASALAMIQKWETTKKAIEEEIEARKKKSLN
  soluble fraction (log2): -0.491

## HMKHAIKEKIRNEYVHGYLNEEGYRVMPTLDELIRKYEVPASSTYRASSKEGWKKQKEAFLEHLRGEIDA
  soluble fraction (log2): -0.492

## HMKHFFIIAGGKIEDAFAIEVLKGFAEKTVIAADSGMEFLRRNEIVPQVIIGDFDSVSKETLEWFQKK
  soluble fraction (log2): -0.751

## HMKHKGILTTWNDDRGFGFITPKEGKEPVFVHISAFARGQGRPVLNASLTYRLVRDDQQRPRAEAVRL
  soluble fraction (log2): -1.33

## HMKHKHHIIPKHKGGTDHPDNLIELTVEQHAKAHWVEFMLDGREEDYWAWKGLEGVASKKDIIYALSKR
  soluble fraction (log2): -0.0688

## HMKHSEAIELGKRMLSQALQDVSLVLKKIPEERLQAVAAELNLKTPDELFEKIGLGERLAALVARRLLP
  soluble fraction (log2): -0.851

## HMKHTQTDEGELLSTLRTLFPNSSSSSLRKMLTQGRILVNQEVVHRAKHALQAGDEIEVLARQ
  soluble fraction (log2): -0.13

## HMKHVDLDNNERYIYGIIGSTKIHVDEVVEKSGMETKHVMAILTNLELKEAIKGIPGGFYLR
  soluble fraction (log2): -2.02

## HMKHVENLSDEKTIQAIQENPYMQYLLGLSKFTEKPVFVPELFVLIRKRLDQDFFNMLTLILAEADG
  soluble fraction (log2): ≥ 1.04

## HMKHYIDFIAEQLKTLTAIPSPSGYTKNATDYLMKLLQDMGYEPKLSRKGNVFVTLGGDGEPLVLAAHVD
  soluble fraction (log2): 0.112

## HMKIDELKAYLFQSVRVKNPHTQEYDTLKIIELNYYQDKIKAKLKNSDDDYITEMIFESIKHLQNFLG
  soluble fraction (log2): -2.81

## HMKIEEIAYSTFISMLDKGEVSKVELKDNLIYIETKADDKTIYTTGRMEDPDLTNRLIEAGVDFTEIE
  soluble fraction (log2): -0.196

## HMKIELSDNEKIIYDLLSSQHVLLSEIKDKAGLSNKAWDKSTKSLRKLGLIAVEKKDDDIYISKL
  soluble fraction (log2): -0.0288

## HMKIGIYPGTFDPITHGHTDIIRRSLRVFDKVVVAVAPNPSKHPLFTLTERLEMIRIVMKELEHVEVT
  soluble fraction (log2): 0.159

## HMKILVTDDNIRIDKYLTTQTEYSRSTIQKMIESNNILVNNKPTKSNYILRNNDEITIDENFNEE
  soluble fraction (log2): -0.00567
